Measured values reported in patent US20140286957A1 (Teva, published 2014).
Substitutions are numbered along the chain they refer to. In names and notes the source's numbering stands. Like-named read-outs stand apart in the source and are kept apart here.

Assays:
Human CD1d on cells [1] = biological target: T1, Human CD1d on cells (human, UniProt P15813 20-335); assay: cell-based or functional assay
T1 sequence (looked up): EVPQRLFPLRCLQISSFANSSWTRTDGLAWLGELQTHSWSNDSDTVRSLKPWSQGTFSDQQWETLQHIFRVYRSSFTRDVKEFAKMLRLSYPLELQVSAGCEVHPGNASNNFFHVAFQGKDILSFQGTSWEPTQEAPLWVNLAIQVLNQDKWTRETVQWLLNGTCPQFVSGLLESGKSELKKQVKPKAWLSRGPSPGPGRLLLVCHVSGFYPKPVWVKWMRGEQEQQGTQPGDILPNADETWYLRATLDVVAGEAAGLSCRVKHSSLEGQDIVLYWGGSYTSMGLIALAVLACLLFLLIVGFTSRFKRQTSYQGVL

Human CD1d/β2M = biological target: T2, Human CD1d/β2M (human, UniProt P15813 20-301; P61769 21-119); assay: SPR
T2 construct: also called hCD1d; recombinant human CD1d

Human CD1d on cells [2] = biological target: T1, Human CD1d on cells; assay: cell-based or functional assay; remark: listed apart in the source
Human CD1d on cells [3] = biological target: T1, Human CD1d on cells; assay: cell-based or functional assay; remark: listed apart in the source
Human CD1d on cells [4] = biological target: T1, Human CD1d on cells; assay: cell-based or functional assay; remark: listed apart in the source
Human CD1d on cells [5] = biological target: T1, Human CD1d on cells; assay: cell-based or functional assay; remark: listed apart in the source
Human CD1d on cells [6] = biological target: T1, Human CD1d on cells; assay: cell-based or functional assay; remark: listed apart in the source

B1: 401.11.157 (antibody, IgG4, V domains shown)
VH: QVQLVGSGGGLVKPGRSLRLSCAASGFTFDDYAMHWVRQAPGKGLEWVATIIWNSAIIGYADSVKGRFIVSRDNAKNSLYLQMNSLRAEDTALYYCAKDMCSSGGCPDGYFDSWGQGTLVTVSS
VL: DIQMTQSPSSVSASVGDRVTITCRASQHISSWLAWYQQKPGKAPNLLIYAASSLQSGVPSRFSGSGSGTDFTLTISSLQPEDFATYYCQQANRFPLTFGGGTKLEIKR
notes: IgG4 (S228P)
With B1 the “NKT IL-4 EC50 (moDC)” value (Human CD1d on cells [1]) was 0.799 ng/mL, the “NKT IL-13 EC50 (moDC)” value (Human CD1d on cells [1]) was 3.87 ng/mL and the Kd (Human CD1d/β2M) was 0.173 nM. The “NKT IFN-γ EC50 (moDC)” value (Human CD1d on cells [2]) was 9.11 ng/mL, the “NKT IL-4 EC50 (moDC)” value (Human CD1d on cells [2]) was 3.44 ng/mL and the “NKT IL-5 EC50 (moDC)” value (Human CD1d on cells [2]) was 8.49 ng/mL. For the same binder, the “NKT IL-13 EC50 (moDC)” value (Human CD1d on cells [2]) was 20.6 ng/mL, the “NKT TNF EC50 (moDC)” value (Human CD1d on cells [2]) was 5.59 ng/mL and the “NKT IFN-γ EC50 (THP-1)” value (Human CD1d on cells [3]) was 5.45 ng/mL. For the same binder, the “NKT IL-4 EC50 (THP-1)” value (Human CD1d on cells [3]) was 1.81 ng/mL, the “NKT IL-5 EC50 (THP-1)” value (Human CD1d on cells [3]) was 4.48 ng/mL and the “NKT IL-13 EC50 (THP-1)” value (Human CD1d on cells [3]) was 6.98 ng/mL. The “NKT TNF EC50 (THP-1)” value (Human CD1d on cells [3]) was 3.54 ng/mL.

B2: 401.11.159 (antibody, IgG4, V domains shown)
VH: B1 VH with Q1E, G6E, K13Q, T91M
VL: B1 VL with N45K, P59S
With B2 the “NKT IL-4 EC50 (moDC)” value (Human CD1d on cells [1]) was 1.69 ng/mL and the “NKT IL-13 EC50 (moDC)” value (Human CD1d on cells [1]) was 10.5 ng/mL.

B3: 401.11.160 (antibody, IgG4, V domains shown)
VH: B1 VH with Q1E, G6E, K13Q, T91M
VL: B1 VL
notes: IgG4 (S228P)
With B3 the “NKT IL-4 EC50 (moDC)” value (Human CD1d on cells [1]) was 1.56 ng/mL, the “NKT IL-13 EC50 (moDC)” value (Human CD1d on cells [1]) was 6.52 ng/mL and the Kd (Human CD1d/β2M) was 0.109 nM.

B4: 401.11.161 (antibody, IgG4, V domains shown)
VH: B1 VH with Q1E, G6E, K13Q, T91M
VL: B1 VL with N45K
notes: IgG4 (S228P)
In the case of B4, the “NKT IL-4 EC50 (moDC)” value (Human CD1d on cells [1]) is reported as 5.24 ng/mL, the “NKT IL-13 EC50 (moDC)” value (Human CD1d on cells [1]) is reported as 8.38 ng/mL and the Kd (Human CD1d/β2M) is reported as 0.255 nM.

B5: 401.11.165 (antibody, IgG4, V domains shown)
VH: B1 VH with Q1E, G6E, K13Q
VL: B1 VL with N45K
notes: IgG4 (S228P)
For B5, the Kd (Human CD1d/β2M) was 0.168 nM, the “NKT IFN-γ EC50 (THP-1)” value (Human CD1d on cells [3]) was 6.15 ng/mL and the “NKT IL-4 EC50 (THP-1)” value (Human CD1d on cells [3]) was 1.11 ng/mL. For the same binder, the “NKT IL-5 EC50 (THP-1)” value (Human CD1d on cells [3]) was 3.73 ng/mL, the “NKT IL-13 EC50 (THP-1)” value (Human CD1d on cells [3]) was 5.76 ng/mL and the “NKT TNF EC50 (THP-1)” value (Human CD1d on cells [3]) was 3.04 ng/mL.

B6: 401.11.166 (antibody, IgG4, V domains shown)
VH: B1 VH with Q1E, G6E, K13Q
VL: B1 VL with N45K, P59S
notes: IgG4 (S228P)
With B6 the Kd (Human CD1d/β2M) was 0.173 nM, the “NKT IFN-γ EC50 (THP-1)” value (Human CD1d on cells [3]) was 6.98 ng/mL and the “NKT IL-4 EC50 (THP-1)” value (Human CD1d on cells [3]) was 2.75 ng/mL. The “NKT IL-5 EC50 (THP-1)” value (Human CD1d on cells [3]) was 5.38 ng/mL, the “NKT IL-13 EC50 (THP-1)” value (Human CD1d on cells [3]) was 7.25 ng/mL and the “NKT TNF EC50 (THP-1)” value (Human CD1d on cells [3]) was 4.02 ng/mL.

B7: 401.11.167 (antibody, IgG4, V domains shown)
VH: B1 VH with Q1E, G6E, K13Q
VL: B1 VL
notes: IgG4 (S228P)
With B7 the Kd (Human CD1d/β2M) was 0.17 nM, the “NKT IFN-γ EC50 (THP-1)” value (Human CD1d on cells [3]) was 6.51 ng/mL and the “NKT IL-4 EC50 (THP-1)” value (Human CD1d on cells [3]) was 2.89 ng/mL. The “NKT IL-5 EC50 (THP-1)” value (Human CD1d on cells [3]) was 4.98 ng/mL, the “NKT IL-13 EC50 (THP-1)” value (Human CD1d on cells [3]) was 7.46 ng/mL and the “NKT TNF EC50 (THP-1)” value (Human CD1d on cells [3]) was 4 ng/mL.

B8: 401.11.179 (antibody, IgG4, V domains shown)
VH: B1 VH with D108E
VL: B1 VL with N45K
notes: IgG4 (S228P)
In the case of B8, the “NKT IFN-γ EC50 (moDC)” value (Human CD1d on cells [4]) is reported as 30.2 ng/mL, the “NKT IL-4 EC50 (moDC)” value (Human CD1d on cells [4]) is reported as 0.73 ng/mL and the “NKT IL-5 EC50 (moDC)” value (Human CD1d on cells [4]) is reported as 2.1 ng/mL. The “NKT IL-13 EC50 (moDC)” value (Human CD1d on cells [4]) was 2.43 ng/mL and the Kd (Human CD1d/β2M) was 0.274 nM.

B9: 401.11.180 (antibody, IgG4, V domains shown)
VH: B1 VH with M100L, D108E
VL: B1 VL with N45K
B9 was tested, and the “NKT IFN-γ EC50 (moDC)” value (Human CD1d on cells [4]) was 49.5 ng/mL, the “NKT IL-4 EC50 (moDC)” value (Human CD1d on cells [4]) was 1.31 ng/mL and the “NKT IL-5 EC50 (moDC)” value (Human CD1d on cells [4]) was 3.35 ng/mL. The “NKT IL-13 EC50 (moDC)” value (Human CD1d on cells [4]) was 4.09 ng/mL.

B10: 401.11.181 (antibody, IgG4, V domains shown)
VH: B1 VH with G6E
VL: B1 VL with N45K
For B10, the “NKT IFN-γ EC50 (THP-1)” value (Human CD1d on cells [5]) was 3.25 ng/mL, the “NKT IFN-γ EC50 (moDC)” value (Human CD1d on cells [5]) was 2.63 ng/mL and the “NKT IL-4 EC50 (THP-1)” value (Human CD1d on cells [5]) was 3.19 ng/mL. The “NKT IL-4 EC50 (moDC)” value (Human CD1d on cells [5]) was 1.1 ng/mL and the “NKT IL-13 EC50 (THP-1)” value (Human CD1d on cells [5]) was 5.04 ng/mL.

B11: 401.11.177 (antibody, V domains shown)
VH: B1 VH with M100I
VL: DIQMTQSPSSVSASVGDRVTITCRASQHISSWLAWYQQKPGKAPKLLIYAASSLQSGVPSRFSGSGSGTDFTLTISSLQPEDFATYYCQQANRFPLTFGGGTKLEIK
In the case of B11, the “NKT IFN-γ EC50 (moDC)” value (Human CD1d on cells [4]) is reported as 7.56 ng/mL, the “NKT IL-4 EC50 (moDC)” value (Human CD1d on cells [4]) is reported as 0.731 ng/mL and the “NKT IL-5 EC50 (moDC)” value (Human CD1d on cells [4]) is reported as 1.4 ng/mL. For the same binder, the “NKT IL-13 EC50 (moDC)” value (Human CD1d on cells [4]) was 1.27 ng/mL and the Kd (Human CD1d/β2M) was 0.507 nM.

B12: 401.11.178 (antibody, V domains shown)
VH: B1 VH with M100L
VL: B11 VL
B12 was tested, and the “NKT IFN-γ EC50 (moDC)” value (Human CD1d on cells [4]) was 15.1 ng/mL, the “NKT IL-4 EC50 (moDC)” value (Human CD1d on cells [4]) was 0.969 ng/mL and the “NKT IL-5 EC50 (moDC)” value (Human CD1d on cells [4]) was 1.38 ng/mL. For the same binder, the “NKT IL-13 EC50 (moDC)” value (Human CD1d on cells [4]) was 1.76 ng/mL and the Kd (Human CD1d/β2M) was 0.468 nM.

B13: 402.8.54 (antibody, IgG4, V domains shown)
VH: QVQLQESGPGLVKPSETLSLTCAVYGGSFSGYYWSWIRQPPGKGLEWIGEINHAGSTNYNPSLKSRVTISVDTSKNQFSLKLSSVTAADTAVYYCARGEIYDFWKSYMEVWGKGTTVTVSS
VL: QTVVTQEPSLTVSPGGTVTLTCASSSGAVSSGNFPNWFQQKPGQAPRALIFSASNKHSWTPARFSGSLLGGKAVLTLSGVQPEDEAEYYCLLYFGDTQLGVFGGGTKVTVL
B13 was tested, and the “NKT IFN-γ EC50 (moDC)” value (Human CD1d on cells [6]) was 138 ng/mL and the “NKT IL-4 EC50 (moDC)” value (Human CD1d on cells [6]) was 109 ng/mL.

B14: 402.8.55 (antibody, IgG4, V domains shown)
VH: B13 VH with M108L
VL: B13 VL
In the case of B14, the “NKT IFN-γ EC50 (moDC)” value (Human CD1d on cells [6]) is reported as 445 ng/mL and the “NKT IL-4 EC50 (moDC)” value (Human CD1d on cells [6]) is reported as 175 ng/mL.
